According to article PMC5679657, “KSHV inhibits stress granule formation by viral ORF57 blocking PKR activation” (PLoS Pathogens, 2017):

B1: KSHV ORF57, untagged (pcDNA-ORF57) (natural protein)
chain: MVQAMIDMDIMKGILEDSVSSSEFDESRDDETDAPTLEDEQLSEPAEPPADERIRGTQSAQGIPPPLGRIPKKSQGRSQLRSEIQFCSPLSRPRSPSPVNRYGKKIKFGTAGQNTRPPPEKRPRRRPRDRLQYGRTTRGGQCRAAPKRATRRPQVNCQRQDDDVRQGVSDAVKKLRLPASMIIDGESPRFDDSIIPRHHGACFNVFIPAPPSHVPEVFTDRDITALIRAGGKDDELINKKISAKKIDHLHRQMLSFVTSRHNQAYWVSCRRETAAAGGLQTLGAFVEEQMTWAQTVVRHGGWFDEKDIDIILDTAIFVCNAFVTRFRLLHLSCVFDKQSELALIKQVAYLVAMGNRLVEACNLLGEVKLNFRGGLLLAFVLTIPGMQSRRSISARGQELFRTLLEYYRPGDVMGLLNVIVMEHHSLCRNSECAAATRAAMGSAKFNKGLFFYPLS
notes: KSHV ORF57, untagged, expressed from pcDNA-ORF57; also called untagged ORF57; source: HEK293, transfected, in lysate
B2: KSHV ORF57-Flag (wild type, pVM7) (natural protein)
chain: B1 chain
notes: KSHV ORF57 (mRNA transcript accumulation protein, MTA), wild type, expressed from pVM7; also called ORF57 wt; ORF57-wt-Flag; source: HEK293 or HeLa, transfected, in lysate

Columns and labels:
[1] = molecular target: T1, PKR ΔPK-Myc-Flag (aa 1-270) (UniProt P19525 1-270); assay: co-IP; HEK293 extract with Myc-Flag-tagged PKR FL, ΔPK or ΔRBM mixed with extract with untagged ORF57, RNase A/T1-digested; IP with anti-Flag for PKR; blot anti-ORF57; conditions: partners not purified
T1 construct: PKR (EIF2AK2) aa 1-270, kinase domain deleted; made from pPKR-FL; also called N-terminal RBM domain of PKR; source: HEK293, transfected, in lysate

[2] = molecular target: T2, phosphorylated full-length PKR-Myc-Flag from arsenite-treated cells (UniProt P19525 1-551, phosphorylated; phospho-Thr 451 detected with anti-phosphorylated PKR (Thr 451)); assay: co-IP; extract of HEK293 cells with PKR-Myc-Flag, untreated or treated with arsenite for 30 min, mixed with HEK293 extract with ORF57-Flag, RNase A/T1-digested; pulled down with anti-Myc beads; blots anti-Flag, anti-pPKR (Thr 451), anti-ORF57; conditions: partners not purified
T2 construct: protein kinase R (PKR, EIF2AK2), full length, from pPKR-FL, phosphorylated in arsenite-treated cells; Other phosphorylated sites are not determined in this experiment; also called p-PKR; phosphorylated FL PKR; source: HEK293, transfected, treated with arsenite for 30 min, in lysate
T2 sequence (P19525 whole entry): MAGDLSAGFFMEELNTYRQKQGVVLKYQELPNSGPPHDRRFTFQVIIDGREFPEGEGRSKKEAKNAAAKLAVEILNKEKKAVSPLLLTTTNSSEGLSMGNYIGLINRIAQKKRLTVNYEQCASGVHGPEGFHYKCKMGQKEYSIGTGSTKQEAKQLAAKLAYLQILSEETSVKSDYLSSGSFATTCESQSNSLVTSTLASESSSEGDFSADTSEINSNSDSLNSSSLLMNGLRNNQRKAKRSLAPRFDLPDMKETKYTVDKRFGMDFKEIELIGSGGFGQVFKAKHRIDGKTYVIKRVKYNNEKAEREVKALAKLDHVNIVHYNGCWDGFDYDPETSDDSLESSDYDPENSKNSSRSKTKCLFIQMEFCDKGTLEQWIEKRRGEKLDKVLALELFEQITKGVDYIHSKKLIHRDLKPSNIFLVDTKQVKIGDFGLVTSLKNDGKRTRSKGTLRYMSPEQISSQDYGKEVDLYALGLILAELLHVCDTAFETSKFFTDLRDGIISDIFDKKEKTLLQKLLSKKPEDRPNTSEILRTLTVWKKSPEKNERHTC

T1 sequence (P19525 1-270, stated change not applied): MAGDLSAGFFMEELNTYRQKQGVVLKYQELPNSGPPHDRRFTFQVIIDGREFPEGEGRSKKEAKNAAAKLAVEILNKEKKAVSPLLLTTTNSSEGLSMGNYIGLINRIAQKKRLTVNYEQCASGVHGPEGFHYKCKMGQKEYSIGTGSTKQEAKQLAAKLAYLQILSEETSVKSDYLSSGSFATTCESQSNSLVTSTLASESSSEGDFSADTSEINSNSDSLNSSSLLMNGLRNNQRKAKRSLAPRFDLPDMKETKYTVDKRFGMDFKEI

Binder | fold binding relative to FL PKR [1] [fold] | fold binding relative to PKR from untreated cells [2] [times]
B1 | ~6.5 | 
B2 |  | ~3
